The values that follow come from publication PMC7513463 (Nature, 2020).

First the molecules themselves.
B1: PA0623 tube protein of pyocin R2 (natural protein, Pseudomonas aeruginosa PAO1, UniProt Q9I5S9 1-167, looked up)
chain: MIPQTLTNTNLFIDGVSFAGDVPSLTLPKLAVKTEQYRAGGMDAPVSIDMGLEAMEAKFSTNGARREALNFFGLADQSAFNGVFRGSFKGQKGASVPVVATLRGLLKEVDPGDWKAGEKAEFKYAVAVSYYKLEVDGREVYEIDPVNGVRAINGVDQLAGMRNDLGL
B2: PA0628 hub protein of pyocin R2 (natural protein, Pseudomonas aeruginosa PAO1, UniProt G3XCU8 1-329, looked up)
chain: MQPSFRIVADGTDVTQRLNDRLLKLTLLDKPGMESDSLTLRIDDRDGQVALPRRGAVLEVHLGYAGEPLMRMGRFTVDTLQWAGPPDCLTVTAKAGDMRGSGKTIRSGGWEGTTLAQVCRDVGARNGWRVECPLQVAIARVDQVNESDYHFVTRLARQYDCTAKLAEGMLMVLPRQSGQSATGRRIEPLVLGRADVGSFDVTFDDRSLMRTVKTRYQLPGSGEVKSVELKNPKAPATAMGEHVDRHLYTSRGEAEQAAKARLASFSRSSASVRLELPGRGDLFAERSLLLQGFKAGIDGEFLIDSVEHTYSSSGWTTVVQCNGGRGGKG
B3: PA0626 ripcord protein of pyocin R2 (natural protein, Pseudomonas aeruginosa PAO1, UniProt G3XD65 1-290, looked up)
chain: MAYLEQLQAGLRYLGRAGESGRKSLDKVVAPVNGAISEIRGAAAELENLPGVSPEMAARLQRAMRGIGQAQGKVNRVVSTYDRASRALLGIDERLDALKVQVNSAAQAVGKVAGDISPTLAGVLPSWLLAPSATPPSEAAASLPHLLVLQPLTANAQPFYFNLNTAAFDALQRNSAYNWSGQVRLGRRPALQSVGMGEESILLKGAVFPLRRQVGNQEKVVGLEQLEALRRLAERREPLILSSGYGEVQMGLWCLVRISENQSALLGNGAPRKQTFDLEFKRYGDDLPNR
B4: PA0618 (Tri1) triplex protein of pyocin R2 (natural protein, Pseudomonas aeruginosa PAO1, UniProt G3XCX5 1-295, looked up)
chain: MIIDLSQLPEPEVIENLDFETIYQELLGDFREAMAGEWTAEVESDPVLKLLQLAAYRELLLRARINDAARAVMLAYASGADLDQIGAGFNVQRLLIRPAQPEAVPPVEAQYESDKSLRNRIQLAFEQLSVAGPRNAYIAHALGADGRVADASATSPAPCEVLISVLGVEGNGQAPEAVLQAVRLALNAEDVRPVADRVTVRSAGIVPYQVKAQLYLFPGPEAELIRAAAEASLRDYISAQRRLGRDIRRSALFATLHVEGVQRVELQEPAADVVLDETQAAYCTGYAITLGGVDE
B5: PA0619 (Tri2) triplex protein of pyocin R2 (natural protein, Pseudomonas aeruginosa PAO1, UniProt G3XD92 1-177, looked up)
chain: MSSRLLPPNRSSLERSLGDVLPAELPVPLRELHDPARCEAALLPYLAWTRSVDRWDPDWSDEAKRNAVATSFVLHQRKGTLTALRQVVEPIGALSEVTEWWQRSPTGVPGTFEITVDVSDRGIDEGTVLELERLLDDVRPVSRHLTRLDLRITPVIRSRHGLAVTDGDTLEIFPWKQ
B6: PA0622 sheath protein of pyocin R2 (natural protein, Pseudomonas aeruginosa PAO1, UniProt G3XD39 1-386, looked up)
chain: MSFFHGVTVTNVDIGARTIALPASSVIGLCDVFTPGAQASAKPNVPVLLTSKKDAAAAFGIGSSIYLACEAIYNRAQAVIVAVGVETAETPEAQASAVIGGISAAGERTGLQALLDGKSRFNAQPRLLVAPGHSAQQAVATAMDGLAEKLRAIAILDGPNSTDEAAVAYAKNFGSKRLFMVDPGVQVWDSATNAARNAPASAYAAGLFAWTDAEYGFWSSPSNKEIKGVTGTSRPVEFLDGDETCRANLLNNANIATIIRDDGYRLWGNRTLSSDSKWAFVTRVRTMDLVMDAILAGHKWAVDRGITKTYVKDVTEGLRAFMRDLKNQGAVINFEVYADPDLNSASQLAQGKVYWNIRFTDVPPAENPNFRVEVTDQWLTEVLDVA
B7: PA0616 central spike protein of pyocin R2 (in the native particle) (natural protein)
chain: MSYVSAEHDRMLAAMILPCVVVAVDLAAARVRVRSGDWTSGWLRWHSLAAGKVRHWRAPSIGEQGVLLSPSGGVSMGTFIPGLYGDAGTAPDNSASSETWRFDDGASLSYDWAAHRYRVELPSGTVEVRVGASEVRVSDGAVSLKAPKISLEGPVEIAGTLTVSGDILGGGSIIDTAGNSNHHTH
B8: PA0616 central spike protein, full length, recombinant (natural protein)
chain: B7 chain
B9: PA0617 sheath initiator protein of pyocin R2 (natural protein, Pseudomonas aeruginosa PAO1, UniProt G3XD42 1-108, looked up)
chain: MIGMDRRSGLPLSGLAHLKQSVEDILTTPLGSRRMRPEYGSKLRRMVDMPVSEGWKSAVQAEVARSLGRWEPRIGLSAVRVVAVVDGRVDLLLSGVFEGENINMEVSA
B10: PA0615 collar protein of pyocin R2 (natural protein, Pseudomonas aeruginosa PAO1, UniProt G3XD82 1-171, looked up)
chain: MPEQAVTLEALYAAIEQVLRERLPEAQLIGFWPGVPENTPAVSLEIAELLPERDPGTGESALLCRLQARIMVPPGADRQAVSIACGIVRTLREQTWNLSLQPARFVRSAVDGSREELKSLRVWLVEWTQSLRLGDPEWAWEDQPPGSLMLGFDPQTGPGHEPDYFAPEALA

Data set [1] concerns the molecule itself. The data set can be described thus: cryo-EM structure.
Data set [2] deals with B2. The data set can be described thus: cryo-EM structure.
Data set [3] addresses B5. The data set can be described thus: cryo-EM structure.
Data set [4] concerns the target B4. The data set can be described thus: cryo-EM structure.
Data set [5] concerns the molecule itself. The data set can be described thus: cryo-EM structure. This is another data set of the same source.
The data set “crystal structure” deals with the molecule itself. In words: crystal structure.
Data set [6] concerns the target B6. The data set can be described thus: cryo-EM structure.
Data set [7] deals with B6. In words: cryo-EM structure. This is another data set of the same source.

Like-named read-outs stand apart in the source and are kept apart here.

On to B1, for which the stoichiometry N (in general, the number of molecules, sites or subunits per partner or assembly) in “cryo-EM structure [1]” was 6.

B2: the “stoichiometry N” value in “cryo-EM structure [1]” was 3.

Take B3: the “stoichiometry N” value in the data set “cryo-EM structure [1]” is 6. In addition, the binding result in data set [2] is “binds”.

On to B4, for which the “stoichiometry N” value came to 2 in “cryo-EM structure [1]” and 2 PA0618 per PA0619 in data set [3].

For B5, the binding result in data set [4] is on record as “binds”.

In the case of B6, the binding result in the data set “cryo-EM structure [5]” was “binds”.

With B7, the “stoichiometry N” value in “cryo-EM structure [1]” stood at 3.

For B8, in “crystal structure”, the “stoichiometry N” value was determined as 3.

For B9, the binding result in data set [6] is “binds”.

In the case of B10, in data set [7], the binding result is “binds”. The “stoichiometry N” value in the data set “cryo-EM structure [1]” is 6.
